Laboratory results published in article PMC4983199 (Cell, 2016).

Columns and labels:
[1] = biological target: ZIKV subviral particles (SVPs, prM-E), strain H/PF/2013 (Zika virus H/PF/2013, UniProt A0A024B7W1); test: ELISA
[2] = biological target: T1, ZIKV E protein domain III (DIII), strain H/PF/2013 (Zika virus H/PF/2013); test: BLI
T1 chain: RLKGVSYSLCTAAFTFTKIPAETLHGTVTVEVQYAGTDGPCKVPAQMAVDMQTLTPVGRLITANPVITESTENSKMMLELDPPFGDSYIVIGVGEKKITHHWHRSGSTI

[3] = biological target: ZIKV E protein (recombinant, ectodomain, strain H/PF/2013) (Zika virus H/PF/2013, UniProt A0A024B7W1); test: ELISA
[4] = biological target: T1, ZIKV E protein domain III (DIII), …; test: cell-based or functional assay

Sequence of ZIKV E protein (recombinant, ectodomain, strain H/PF/2013) (A0A024B7W1 whole entry, looked up, the tested form may be a part): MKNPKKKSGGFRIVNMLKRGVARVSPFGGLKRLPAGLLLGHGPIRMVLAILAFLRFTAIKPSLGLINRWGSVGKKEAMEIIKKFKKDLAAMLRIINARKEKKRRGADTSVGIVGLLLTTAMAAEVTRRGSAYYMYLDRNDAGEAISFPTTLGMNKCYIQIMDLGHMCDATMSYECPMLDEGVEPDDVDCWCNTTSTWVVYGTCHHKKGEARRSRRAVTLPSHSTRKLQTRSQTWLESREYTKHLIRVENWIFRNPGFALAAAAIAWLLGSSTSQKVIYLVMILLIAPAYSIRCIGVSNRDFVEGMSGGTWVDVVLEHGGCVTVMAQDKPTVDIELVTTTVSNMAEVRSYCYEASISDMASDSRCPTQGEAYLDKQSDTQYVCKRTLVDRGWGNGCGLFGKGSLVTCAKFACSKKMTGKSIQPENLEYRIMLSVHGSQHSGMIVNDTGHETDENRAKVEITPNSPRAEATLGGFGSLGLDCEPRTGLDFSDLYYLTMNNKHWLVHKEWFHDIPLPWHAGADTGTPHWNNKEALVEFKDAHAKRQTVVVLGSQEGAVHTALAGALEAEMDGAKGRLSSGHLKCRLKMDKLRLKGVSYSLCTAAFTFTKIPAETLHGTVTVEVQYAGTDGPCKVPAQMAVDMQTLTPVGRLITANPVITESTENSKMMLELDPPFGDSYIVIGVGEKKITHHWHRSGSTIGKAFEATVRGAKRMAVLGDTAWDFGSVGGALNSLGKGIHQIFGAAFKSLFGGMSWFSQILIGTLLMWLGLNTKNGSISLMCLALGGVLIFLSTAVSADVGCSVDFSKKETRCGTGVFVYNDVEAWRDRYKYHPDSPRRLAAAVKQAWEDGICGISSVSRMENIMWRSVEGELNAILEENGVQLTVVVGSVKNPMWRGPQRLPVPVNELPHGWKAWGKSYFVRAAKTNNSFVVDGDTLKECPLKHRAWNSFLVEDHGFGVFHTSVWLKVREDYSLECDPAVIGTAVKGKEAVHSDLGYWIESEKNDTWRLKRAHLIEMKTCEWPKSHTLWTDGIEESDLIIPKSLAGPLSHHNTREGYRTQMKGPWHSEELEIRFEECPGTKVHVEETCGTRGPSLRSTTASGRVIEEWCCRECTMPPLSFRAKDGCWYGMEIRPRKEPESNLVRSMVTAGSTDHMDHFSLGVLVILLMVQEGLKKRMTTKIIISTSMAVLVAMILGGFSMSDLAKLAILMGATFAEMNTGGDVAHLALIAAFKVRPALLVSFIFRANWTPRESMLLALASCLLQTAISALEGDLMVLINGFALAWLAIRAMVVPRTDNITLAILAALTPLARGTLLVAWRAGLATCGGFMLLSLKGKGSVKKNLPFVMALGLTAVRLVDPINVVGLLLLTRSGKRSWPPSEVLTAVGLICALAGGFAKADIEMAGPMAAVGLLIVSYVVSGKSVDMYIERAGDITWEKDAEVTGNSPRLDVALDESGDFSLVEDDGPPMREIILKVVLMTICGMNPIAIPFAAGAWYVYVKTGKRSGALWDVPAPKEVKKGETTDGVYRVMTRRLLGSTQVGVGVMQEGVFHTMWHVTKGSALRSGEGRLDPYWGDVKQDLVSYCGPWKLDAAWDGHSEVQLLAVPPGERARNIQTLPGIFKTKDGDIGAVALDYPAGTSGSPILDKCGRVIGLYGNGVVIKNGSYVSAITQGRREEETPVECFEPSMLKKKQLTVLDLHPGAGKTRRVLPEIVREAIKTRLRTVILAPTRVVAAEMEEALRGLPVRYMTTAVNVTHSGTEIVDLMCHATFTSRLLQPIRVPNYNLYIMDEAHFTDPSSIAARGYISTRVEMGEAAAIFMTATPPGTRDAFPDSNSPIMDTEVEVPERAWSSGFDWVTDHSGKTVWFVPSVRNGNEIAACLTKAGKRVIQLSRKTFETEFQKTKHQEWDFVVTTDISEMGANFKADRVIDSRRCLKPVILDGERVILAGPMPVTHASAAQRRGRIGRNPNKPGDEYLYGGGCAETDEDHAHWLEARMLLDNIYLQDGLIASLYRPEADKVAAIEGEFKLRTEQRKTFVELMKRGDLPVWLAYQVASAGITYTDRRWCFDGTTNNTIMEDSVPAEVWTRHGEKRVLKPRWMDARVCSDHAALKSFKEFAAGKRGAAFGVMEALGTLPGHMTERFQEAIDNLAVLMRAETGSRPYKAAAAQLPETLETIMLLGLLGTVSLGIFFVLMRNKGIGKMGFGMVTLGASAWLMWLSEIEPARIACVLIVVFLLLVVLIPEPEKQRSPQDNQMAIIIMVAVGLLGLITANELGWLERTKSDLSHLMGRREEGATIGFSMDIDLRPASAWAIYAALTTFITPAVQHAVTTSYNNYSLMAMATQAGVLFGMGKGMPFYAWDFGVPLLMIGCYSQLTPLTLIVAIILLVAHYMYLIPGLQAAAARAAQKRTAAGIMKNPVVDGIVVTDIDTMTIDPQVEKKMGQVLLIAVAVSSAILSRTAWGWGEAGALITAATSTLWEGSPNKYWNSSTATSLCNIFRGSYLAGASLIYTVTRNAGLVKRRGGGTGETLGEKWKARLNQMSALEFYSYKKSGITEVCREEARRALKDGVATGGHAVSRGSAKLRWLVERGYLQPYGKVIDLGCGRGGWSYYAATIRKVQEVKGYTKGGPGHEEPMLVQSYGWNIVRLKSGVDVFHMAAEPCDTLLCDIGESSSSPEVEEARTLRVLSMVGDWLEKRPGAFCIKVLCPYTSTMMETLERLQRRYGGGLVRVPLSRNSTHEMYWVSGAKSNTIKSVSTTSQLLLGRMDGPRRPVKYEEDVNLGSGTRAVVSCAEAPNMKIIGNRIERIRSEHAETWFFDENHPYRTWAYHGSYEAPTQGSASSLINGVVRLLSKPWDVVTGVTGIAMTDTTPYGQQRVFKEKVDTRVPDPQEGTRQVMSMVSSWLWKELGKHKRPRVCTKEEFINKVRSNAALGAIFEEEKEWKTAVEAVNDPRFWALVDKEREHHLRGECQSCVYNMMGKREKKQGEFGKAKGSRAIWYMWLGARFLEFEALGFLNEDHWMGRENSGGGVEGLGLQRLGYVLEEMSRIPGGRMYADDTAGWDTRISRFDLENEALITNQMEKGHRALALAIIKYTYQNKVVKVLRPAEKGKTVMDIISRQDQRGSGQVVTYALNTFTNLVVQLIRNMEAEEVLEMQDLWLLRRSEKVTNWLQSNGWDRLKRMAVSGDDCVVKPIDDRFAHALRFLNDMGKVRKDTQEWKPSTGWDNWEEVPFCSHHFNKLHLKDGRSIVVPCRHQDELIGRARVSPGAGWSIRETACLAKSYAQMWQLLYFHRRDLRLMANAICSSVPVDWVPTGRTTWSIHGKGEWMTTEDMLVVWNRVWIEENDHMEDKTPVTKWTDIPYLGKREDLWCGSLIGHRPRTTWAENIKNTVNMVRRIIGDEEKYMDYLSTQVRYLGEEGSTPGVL

| Binder | binding result [1] | Kd [2] | t1/2 [2] | binding result [3] | FRNT50, focus reduction neutralization of ZIKV H/PF/2013 on Vero cells [4] |
| --- | --- | --- | --- | --- | --- |
| ZV-54 mouse monoclonal antibody (antibody, V domains shown) VH: QVQLQQSGVGLARPGTSVKLSCKASGYSFTTYGISWVTQRPGQGLEWIGVIYPRSNNTYYNERFRGKATLTADKSSSSAYLELRGLTAEDSAVYFCARENYGSVYWGQGTTLTVSS VL: DIVMTQSQKFMSTSVGDRVTITCKASQSVGTAVAWYHQKPGQSPKLLIYSASNRYTGVPDRFTGSGSGTDFTLTITYMQSEDLADYFCQQFSNYPFTFGGGTKLEIK | binds | 7.9 ± 0.2 nM | 33 min | binds | 87 ng/mL |
| ZV-67 mouse monoclonal antibody (antibody, V domains shown) VH: QAQLQQSGTGLARPGASVKLSCKASGYTFTSYGISWVTQRAGQGLEWIGVIYPRSGNTYYNEKFRGKATLTADKSSSSAYMELRGLTAEDSAVYFCARENYGSVYWGQGTTLTVSS VL: DIVMTQSQKFMSTSVGDRVSITCKASQNVGTAVAWYQQKPGQSPKLLIYSASNRYTGVPDRFTGSGSGTDFTLTISNMQSEDLADYFCQQFSSYPYTFGGGTKLEIK | – | 8.8 ± 1.7 nM | 13.8 min | – | 143 ng/mL |
| ZV-2 mouse monoclonal antibody (antibody, V domains shown) VH: QVQLQESGAELMKPGASVKLSCKTSGYTFIGYWIEWLKQRPGHGLEWVGEIFPGSGRTKYNEKFKGRATFTADTSSNMAYMQLSSLTTEDSAIYYCARYYYGSYYALDYWGQGTSVTVSS VL: DIVMTQSPSSLSVSAGEKVTLSCKSSQSLLHSGNQKNYLAWYQQKPGQAPKLLIYGASTRESGVPDRFTGSGSGTDFTLTISSVQAEDLAVYYCQNDHSYPLTFGAGTKLELK | – | 266 ± 42 nM | 0.3 min | – | – |
| ZV-48 mouse monoclonal antibody (antibody, V domains shown) VH: QVQLQQPGAELLKPGASVKLSCKASGYSFSNYWMHWVKQRPGQGPEWIGMIHPNSGNTKYNEKFKNKATLTVDKSSSMVYMQLSSLTSEDSAVFYCARLGNDMDYWGQGTSVTVSS VL: DIVMSQSPSSLAVSVGEKITMSCKSSQSLLYSNNEKNYLAWYQQKPGQSPKLLIYWASARDSGVPDRFTGSGSGTDFTLTISSVKAEDLAVFYCQQYYSYPYTFGGGTKLEIK | – | 35 ± 0.8 nM | 3.2 min | binds | 485 ng/mL |
